# B1: MS11 wild type: N. gonorrhoeae MS11 pilin modified with the Gal(α1-3)diNAcBac disaccharide glycan (protein, UniProt P02974 8-165, looked up)
# Type IV major pilin protein …: FTLIELMIVIAIVGILAAVALPAYQDYTARAQVSEAILLAEGQKSAVTEYYLNHGKWPENNTSAGVASPPSDIKGKYVKEVEVKNGVVTATMLSSGVNNEIKGKKLSLWARRENGSVKWFCGQPVTRTDDDTVADAKDGKEIDTKHLPSTCRDNFDAK
# modifications: Gal(α1-3)diNAcBac disaccharide glycan
# notes: N. gonorrhoeae MS11 pilin modified with the Gal(α1-3)diNAcBac disaccharide glycan
# Columns and labels:
# mouse rI-domain = target: T1, mouse rI-domain (Mus musculus, UniProt P05555); assay: Surface plasmon resonance, immobilized mouse rI-domain; conditions: purified pilin 0.125-2 μM; NCDI = no concentration-dependent interaction (no binding of ≤2 μM)
# T1 construct: Recombinant human and mouse I-domain proteins were made and purified as previously described; made in house
# Description: (§1) SPR analyses were performed using a Biacore S200 system (GE Healthcare Life Sciences, Parramatta, NSW, Australia). Samples were analyzed at 25°C in phosphate-buffered saline (PBS) at a flow rate of 10 μl/min and by using single-cycle kinetics. Human rI-domain, mouse rI-domain, and human rCR3 were immobilized onto separate cells of a Series S CM5 sensor chip using an NHS capture kit (both from GE Healthcare Life Sciences) for purified pilin experiments. For experiments in which pilin-glycan-like structures were examined, human rI-domain and rCR3 were immobilized onto separate cells of a CM5 chip. A blank immobilization was used as a control/reference on all chips. MS11 wild-type and MS11 pglA pilin were serially diluted from 2 μM to 0.125 μM in PBS. Glycans (Dextra Laboratories, Reading, UK) (Table 2), resembling the gonococcal Gal(α1-3)diNAcBac pilin-linked glycan, were serially diluted from 2 μM to 0.0078 μM in PBS. Affinity data points were taken at 15 s after injection to avoid an artefactual signal resulting from bulk transport. SPR sensorgrams were analyzed using Biacore Evaluation software (GE Healthcare Life Sciences).
# human rI-domain = target: T2, human rI-domain (Homo sapiens, UniProt P11215); assay: Surface plasmon resonance, immobilized human rI-domain; assay type: binding; conditions: purified pilin 0.125-2 μM; NCDI = no concentration-dependent interaction (no binding of ≤2 μM); read-out: KD, rI-domain, Human
# T2 construct: Recombinant human and mouse I-domain proteins were made and purified as previously described; made in house
# Description: as §1
# T1 sequence (P05555 164-338): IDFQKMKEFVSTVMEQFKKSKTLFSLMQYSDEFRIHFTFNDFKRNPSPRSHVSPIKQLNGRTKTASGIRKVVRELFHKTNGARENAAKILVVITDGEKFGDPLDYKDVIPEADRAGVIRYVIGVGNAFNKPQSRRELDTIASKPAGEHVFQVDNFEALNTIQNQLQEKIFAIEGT
# T2 sequence (P11215 150-328 limits assumed): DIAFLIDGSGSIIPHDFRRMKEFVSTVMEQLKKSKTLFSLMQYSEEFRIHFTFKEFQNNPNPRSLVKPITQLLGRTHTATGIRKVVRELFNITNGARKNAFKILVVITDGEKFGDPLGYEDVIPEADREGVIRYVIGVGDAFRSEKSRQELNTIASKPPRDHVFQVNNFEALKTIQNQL
molecule,measurement,setting,value
B1,"KD, rI-domain, Mouse",mouse rI-domain,NCDI
same,Kd,human rI-domain,349 ± 45 nM
